Assay [1] has as its target T1, endogenous PKCalpha from Jurkat T cell lysates (human, UniProt P17252 2-672).
T1 construct: Detected by immunoblot with an anti-PKCalpha antibody (UBI) after the GST pull down; also called PKCα
Nature of the assay: GST pull down from Jurkat T cell lysates, immunoblot. As for the experimental part:
(§1) GST pull down assay: 1×10⁷ Jurkat T cells were lysed in 1 ml lysis buffer (25 mM MES pH6.5, 5 mM NaF, 1 mM Na₃VO₄, 2 mM EDTA, 150 mM NaCl, 0.5% TritonX-100, 50 μg/ml aprotinin and leupeptin). Lysates were precleared for 30 min at 4° C. Thereafter incubation with purified recombinant GST-NR2F6 fusion proteins for 3 h at 4° C., 5× washing in lysis buffer, SDS-PAGE under reducing conditions on Bis/Tris-buffered gels (Novex, San Diego, Calif.) was performed. Proteins were transferred onto a polyvinyl-difluoridon (PVDF) membrane (Millipore, Bedford, Mass.) by semi-dry blotting (90 mA, 80 min, 4° C.). […] Peroxidase-conjugated antibodies (Pierce, Rockford, Ill.) served as secondary reagent (1:5,000). For antigen detection enhanced chemiluminescence was used (Super Signal, Pierce, Rockford, Ill.).

Assay [2] addresses T2, endogenous PKCtheta from Jurkat T cell lysates (human, UniProt Q04759 1-706).
T2 construct: Detected by immunoblot with an anti-PKCtheta antibody (Cell Signalling) after the GST pull down
The description is as above. As for the experimental part: as §1

T2 sequence (Q04759 whole entry): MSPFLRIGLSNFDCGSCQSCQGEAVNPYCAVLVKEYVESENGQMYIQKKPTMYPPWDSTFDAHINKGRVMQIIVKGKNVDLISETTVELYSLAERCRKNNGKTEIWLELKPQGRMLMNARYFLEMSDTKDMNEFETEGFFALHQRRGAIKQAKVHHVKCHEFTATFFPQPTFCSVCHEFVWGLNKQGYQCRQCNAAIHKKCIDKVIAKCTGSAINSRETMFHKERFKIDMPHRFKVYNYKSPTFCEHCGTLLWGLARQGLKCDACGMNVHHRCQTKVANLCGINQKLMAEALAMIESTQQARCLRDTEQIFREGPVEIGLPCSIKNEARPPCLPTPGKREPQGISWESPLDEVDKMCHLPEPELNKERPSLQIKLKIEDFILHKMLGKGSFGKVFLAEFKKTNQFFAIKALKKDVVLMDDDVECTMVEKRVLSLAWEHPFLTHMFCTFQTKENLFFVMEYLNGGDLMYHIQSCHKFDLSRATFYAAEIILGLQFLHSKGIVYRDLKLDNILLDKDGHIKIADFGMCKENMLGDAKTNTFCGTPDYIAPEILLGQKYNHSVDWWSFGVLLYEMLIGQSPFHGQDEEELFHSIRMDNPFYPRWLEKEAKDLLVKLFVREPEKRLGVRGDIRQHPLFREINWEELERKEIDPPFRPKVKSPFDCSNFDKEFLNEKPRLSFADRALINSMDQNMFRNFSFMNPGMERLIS

B1: GST-NR2F6 fusion protein, full-length, wild-type (other)
chain: MAMVTGGWGGPGGDTNGVDKAGGYPRAAEDDSASPPGAASDAEPGDEERPGLQVDCVVCGDKSSGKHYGVFTCEGCKSFFKRSIRRNLSYTCRSNRDCQIDQHHRNQCQYCRLKKCFRVGMRKEAVQRGRIPHSLPGAVAASSGSPPGSALAAVASGGDLFPGQPVSELIAQLLRAEPYPAAAGRFGAGGGAAGAVLGIDNVCELAARLLFSTVEWARHAPFFPELPVADQVALLRLSWSELFVLNAAQAALPLHTAPLLAAAGLHAAPMAAERAVAFMDQVRAFQEQVDKLGRLQVDSAEYGCLKAIALFTPDACGLSDPAHVESLQEKAQVALTEYVRAQYPSQPQRFGRLLLRLPALRAVPASLISQLFFMRLVGKTPIETLIRDMLLSGSTFNWPYGSGQ
notes: Purified recombinant fusion protein, used as bait in the GST pull down from Jurkat T cell lysates and as substrate in the in vitro kinase assay; also called recombinant NR2F6; purified recombinant GST-NR2F6; not shown: GST tag; N-terminal position inferred from the name GST-NR2F6
With B1, the binding result in assay [1] and in assay [2] was “binds” throughout.

The values above are taken from patent publication US20110236427A1 (MEDIZINISCHE UNIVERSITAT INNSBRUCK, published 2011).
